Assay results from US6436691B1, “Chemical compounds” (Zeneca Limited, priority 1995, dated 2002).
Substitutions are numbered along the chain they refer to. Names may count otherwise.

Tests used:
Assay type in all cases: biochemical
[1] = Conversion of prodrug of Example 24 to drug of Example 25 by HCPB mutants, HPLC (Example 20); settings: 0.5 mM prodrug of Example 24, 5 minutes at 37° C.
Method: The reaction was stopped by adding MeCN (500 μl) plus 0.2% Trifluoroacetic acid. The amount of drug produced was then quantified by HPLC.
HPLC separation was carried out as described in Example 6 except that a mobile phase of 70% MeCN, 30% distilled water and 0.1% trifluoroacetic acid was used to achieve separation of prodrug (retention time 3.8 minutes) and drug (retention time 4.9 minutes) and the compounds were detected at 260 nm. The amount of drug produced was quantified from calibration curves generated with known amounts of drug.
The amount of [Q54R,D145A,D253K]HCPB and [G251T,D253K]HCPB mutants was reduced to 0.75 μg in the reaction mixture.

[2] = Conversion of Hipp-Glu by purified HCPB mutants, 30 minutes, HPLC (Example 17); settings: 0.5 mM substrate, 30 minutes at 37° C.
Method: (§1) Purified mutants of human CPB (D253K; [G251K,D253R]; [G251N,D253R]; [I201S,D253K]; [G251N,D253K]; [Q54R,D145A,D253K]; [G251T,D253K]; [G251S,D253K]; [A248N,G251N,D253K]; [A248S,G251N,D253K] and [S205N,G251N,D253K]—described in Examples 3, 12, 13, 16, 28, 30, 31, 32 and 33) were assayed for their ability to convert hippuryl-L-glutamic acid (Hipp-Glu—Reference Example 1), hippuryl-L-aspartic acid (Hipp-Asp—Reference Example 2) and hippuryl-L-arginine (Sigma Chemical Company—cat no. H6625) to hippuric acid using a HPLC based assay similar to that described in Example 6.
(§2) Samples were incubated for 30 minutes at 37° C. The reactions were terminated by the addition of 500 μl of 40% methanol, 60% distilled water, 0.2% trifluoro acetic acid and the amount of hippuric acid generated was quantitated by HPLC as described in Example 6 but using a mobile phase of 20% methanol, 80% 50 mM phosphate buffer, pH 6.5. Hippuric acid was detected at 230 nm. The results are shown in Table 5 and are expressed as the percentage conversion of substrate into product in 30 minutes at 37° C.

[3] = Activity against Hipp-Glu in crude E. coli periplasmic shockate relative to D253K or D253R HCPB (Example 16)
Description: (§3) A number of other mutant HCPBs have been constructed in a similar manner to the methods described in Reference Examples 7 and 8, and Examples 12, 13, 14 and 15. In each case oligos were constructed to introduce specific changes in the gene sequence by methods similar to those described above. In some cases additional mutations were identified upon complete sequencing of the mutated gene, and these were presumably introduced during the PCR reactions. Mutants with enzyme activity against substrate analogues (see Example 18 below) have been identified, and examples of these are given in Table 4 below. […] This material is subsequently referred to as periplasmic shockate or shockate and is prepared by the following procedure.
(§4) 1. A single colony was used to inoculate 75 ml of L-broth nutrient media containing 10 μg/ml tetracycline and arabinose to a final concentration of 0.01% (w/v). Incubation was performed at 20° C. with shaking (250 rpm) for about 60 hours.
(§5) 2. The cells were then harvested by centrifugation at 4° C.
(§6) 3. The cell pellet was re-suspended in 300 micro-liters of 20% sucrose (w/v) containing 1 mM EDTA in 200 mM Tris-HCl at pH7.5, and incubated at room-temperature for 15 minutes.
(§7) 4. Periplasmic shockate was generated by the addition of 450 micro-liters of distilled water, and a further incubation at room-temperature for 15 minutes.
(§8) 5. Cellular remains were removed by centrifugation, and the supernatant assayed for enzyme activity as soon as possible after preparation and kept at 4° C. prior to assay.
The activity of [G251T,D253K]HCPB was measured using the assay conditions described in Example 17 but using either 50 μl of a neat or 1 in 10 or 1 in 100 dilution of [G251T,D253K]HCPB crude E.coli periplasmic shockate (shockate) sample in place of purified enzyme. Samples were incubated for 24 h at 37° C. […] The amount of Hippuric acid produced in 24 h was quantified by HPLC as described in Example 17 and the results are shown in Table 6 and are expressed as the percentage conversion of substrate into product in 24 h at 37° C.

[4] = Conversion of Hipp-Arg by purified HCPB mutants, 30 minutes, HPLC (Example 17); settings: 0.5 mM substrate, 30 minutes at 37° C.
Method: as §1, §2

[5] = Conversion of Hipp-Asp by purified HCPB mutants, 30 minutes, HPLC (Example 17); settings: 0.5 mM substrate, 30 minutes at 37° C.
Method: as §1, §2

[6] = Activity against Hipp-Asp in crude E. coli periplasmic shockate relative to D253K or D253R HCPB (Example 16)
Description: as §3, §4, §5, §6, §7, §8
(§9) The activity of [G251T,D253K]HCPB was measured using the assay conditions described in Example 17 but using either 50 μl of a neat or 1 in 10 or 1 in 100 dilution of [G251T,D253K]HCPB crude E.coli periplasmic shockate (shockate) sample in place of purified enzyme. Samples were incubated for 24 h at 37° C. […] For other HCPB mutants, the reaction volume was 250 μl and contained 125 μl of neat shockate or 1 in 50 dilution of shockate. The shockate samples were prepared as described in Example 16. The amount of Hippuric acid produced in 24 h was quantified by HPLC as described in Example 17 and the results are shown in Table 6 and are expressed as the percentage conversion of substrate into product in 24 h at 37° C.

[7] = Conversion of Hipp-Asp by periplasmic shockate of HCPB mutants, 24 h (Example 18); settings: 24 h at 37° C.
Method: as §9

[8] = Conversion of Hipp-Glu by periplasmic shockate of HCPB mutants, 24 h (Example 18); settings: for Hipp-Glu (% conversion): 24 h at 37° C.
Method: as §9

[9] = Conversion of Hipp-Arg by periplasmic shockate of HCPB mutants, 24 h (Example 18); settings: 24 h at 37° C.
Method: as §9

[10] = Km and kcat of HCPB mutants with Hipp-Glu (Example 7); settings: Hipp-Glu 0.25-8.0 mM; pH 7.5; 5 h at 37° C.
Method: Hipp-Glu and Hipp-Asp were diluted in range 0.25-8.0 mM and 0.25-5.0 mM respectively in 0.025 M Tris-HCL buffer, pH 7.5. Where necessary substrate samples were adjusted to pH 7.5 with 1M NaOH.
Samples were incubated for 5 h at 37° C. Reactions were terminated by the addition of 500 μl methanol/distilled water (80/20) containing 0.2% TFA. The amount of hippuric acid produced was quantified by HPLC as described in Example 6.
Km and Vmax values were calculated using the ENZFITTER software programme (Biosoft, Perkin Elmer).

[11] = shockate concentration in reaction mixture 50 %
[12] = shockate concentration in reaction mixture 1 %
[13] = shockate concentration in reaction mixture 10 %

B1: [I201S, D253K]: HCPB mutant with I201S and D253K (protein, UniProt P15086 111-417, looked up, variant I201S D253K)
Carboxypeptidase B: ATGHSYEKYNKWETIEAWTQQVATENPALISRSVIGTTFEGRAIYLLKVGKAGQNKPAIFMDCGFHAREWISPAFCQWFVREAVRTYGREIQVTELLDKLDFYVLPVLNIDGYIYTWTKSRFWRKTRSTHTGSSCIGTDPNRNFDAGWCEIGASRNPCDETYCGPAAESEKETKALADFIRNKLSSIKAYLTIHSYSQMMSYPYSYAYKLGENNAELNALAKATVKELASLHGTKYTYGPGATTIYPAAGGSKDWAYDQGIRYSFTFELRDTGRYGFLLPESQIRATCEETFLAIKYVASYVLEHLY
Prodrug Hydrolysis (%) ([1]; enzyme 15 μg/ml): 72.6%
Hipp-Glu (% conversion) ([2]; enzyme 2.5 μg/ml): 4.6%
Hipp-Glu (% conversion) ([2]; enzyme 25 μg/ml): 27.8%
Hipp-Glu, activity relative to D253K HCPB or D253R HCPB [3]: NAD (No activity detected)
Hipp-Arg (% conversion) ([4]; enzyme 2.5 μg/ml): 0%
Hipp-Arg (% conversion) ([4]; enzyme 25 μg/ml): 0%
Hipp-Asp (% conversion) ([5]; enzyme 2.5 μg/ml): 5.8%
Hipp-Asp (% conversion) ([5]; enzyme 25 μg/ml): 33.1%
Hipp-Asp, activity relative to D253K HCPB or D253R HCPB [6]: b (activity equivalent to D253R HCPB)

B2: [G251S, D253K]: HCPB mutant with G251S and D253K, (His)6-c-myc tag (protein, UniProt P15086 111-417, looked up, variant G251S D253K)
Carboxypeptidase B: B1 Carboxypeptidase B with S201I, G251S
modifications: (His)6-c-myc tag
Hipp-Asp (% conversion) [7, 11]: 1.6%
Hipp-Glu (% conversion) [8, 12]: 5%
Hipp-Glu (% conversion) [8, 11]: 93.8%
Hipp-Glu (% conversion) ([2]; enzyme 0.25 μg/ml): 14.5%
Hipp-Glu (% conversion) ([2]; enzyme 25 μg/ml): 100%
Hipp-Glu, activity relative to D253K HCPB or D253R HCPB [3]: e (>10 times the activity of D253K HCPB)
Hipp-Arg (% conversion) ([4]; enzyme 0.25 μg/ml): 0%
Hipp-Arg (% conversion) ([4]; enzyme 25 μg/ml): 0.8%
Hipp-Asp (% conversion) ([5]; enzyme 0.25 μg/ml): 0%
Hipp-Asp (% conversion) ([5]; enzyme 25 μg/ml): 2.8%

B3: [G251T,D253K]: HCPB mutant with G251T and D253K, (His)6-c-myc tag (protein, UniProt P15086 111-417, looked up, variant G251T D253K)
Carboxypeptidase B: B1 Carboxypeptidase B with S201I, G251T
modifications: (His)6-c-myc tag
Hipp-Asp (% conversion) [7, 12]: 0%
Hipp-Asp (% conversion) [7, 13]: 2.6%
Hipp-Glu (% conversion) ([8]; shockate concentration in reaction mixture 0.1 %): 60%
Hipp-Glu (% conversion) [8, 12]: 93%
Hipp-Glu (% conversion) [8, 13]: 100%
fold more active against Hipp-Glu compared to Hipp-Arg ([8]; shockate samples, 24 h): over 900 fold
fold more active than D253K at converting Hipp-Glu to hippuric acid ([8]; shockate samples, 24 h): at least 50 fold
Prodrug Hydrolysis (%) ([1]; enzyme 1.5 μg/ml): 36.0%
Hipp-Glu (% conversion) ([2]; enzyme 0.02 μg/ml): 8.2%
Hipp-Glu (% conversion) ([2]; enzyme 25 μg/ml): 100%
Hipp-Arg (% conversion) [9, 12]: 0.1%
Hipp-Arg (% conversion) [9, 13]: 0.8%
Hipp-Arg (% conversion) ([4]; enzyme 0.02 μg/ml): 0%
Hipp-Arg (% conversion) ([4]; enzyme 25 μg/ml): 5.2%
Hipp-Asp (% conversion) ([5]; enzyme 0.02 μg/ml): 0%
Hipp-Asp (% conversion) ([5]; enzyme 25 μg/ml): 14%
Km [10]: 1.1 mM
kcat, Hipp-Glu [10]: 75 s⁻¹
